Reference: US10502741B2, “Means and methods for detecting activated MALT1” (Helmholtz Zentrum München Deutsches Forschungszentrum für …, priority 2014, dated 2019)

Molecular target: T1, active MALT1 (Homo sapiens, UniProt Q9UDY8)
T1 construct: endogenous in cells; host or cells: Jurkat T cells, primary human PBMCs and T cells, DLBCL cell lines (HBL1, TMD8, OCI-Ly3, OCI-Ly10, U2932, RIVA, BJAB, Su-DHL-4, Su-DHL-6)
T1 sequence (Q9UDY8 1-824): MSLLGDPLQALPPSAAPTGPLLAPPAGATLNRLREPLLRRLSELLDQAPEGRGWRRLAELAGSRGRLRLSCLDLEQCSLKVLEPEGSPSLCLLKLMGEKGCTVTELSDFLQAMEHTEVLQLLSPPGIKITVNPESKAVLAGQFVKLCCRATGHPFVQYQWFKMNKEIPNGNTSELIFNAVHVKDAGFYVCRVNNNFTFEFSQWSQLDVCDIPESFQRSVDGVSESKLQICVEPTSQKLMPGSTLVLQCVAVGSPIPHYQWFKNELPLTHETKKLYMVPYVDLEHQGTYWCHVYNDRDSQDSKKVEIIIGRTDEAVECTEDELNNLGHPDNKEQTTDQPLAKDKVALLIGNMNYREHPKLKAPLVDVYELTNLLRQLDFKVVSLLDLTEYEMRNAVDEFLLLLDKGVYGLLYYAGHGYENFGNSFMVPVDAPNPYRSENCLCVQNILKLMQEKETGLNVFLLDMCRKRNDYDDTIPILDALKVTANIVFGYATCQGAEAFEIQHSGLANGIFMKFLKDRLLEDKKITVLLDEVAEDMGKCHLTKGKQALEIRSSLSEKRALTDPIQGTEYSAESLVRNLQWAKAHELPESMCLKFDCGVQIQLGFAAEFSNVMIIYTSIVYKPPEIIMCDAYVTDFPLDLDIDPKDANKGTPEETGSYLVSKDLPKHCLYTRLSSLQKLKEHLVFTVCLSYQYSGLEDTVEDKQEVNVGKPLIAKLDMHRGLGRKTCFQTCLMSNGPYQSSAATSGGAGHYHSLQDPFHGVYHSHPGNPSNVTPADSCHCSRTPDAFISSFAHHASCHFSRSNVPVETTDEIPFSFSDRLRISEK
Assay: MALT1 ELASA in cryo-preserved patient DLBCL tumor samples
Conditions: 0.25 μM on lysed tumor tissue
Protocol: FIG. 10: A) Active MALT1 detection in cryo-preserved patient tumor samples. Frozen tumor tissue was lysed with a douncer and syringe, incubated with z-VRPR-FMK (0.25 μM) (SEQ ID No. 6) or left untreated before MALT1 activity read-out as above. Relative MALT1 activity from each untreated and z-VRPR-FMK (SEQ ID No. 6) treated samples was measured and directly compared (ABC DLBCL n=8; GCB DLBCL n=7). Significance for MALT1 activity in untreated to z-VRPR-FMK (SEQ ID No. 6) treated samples was calculated by a two-tailed t-test (**<0.005). B) Oncogenic CARMA1 is sufficient to trigger MALT1 activation. BJAB transduced with CARMA1 WT or L244P (ABC derived) or L225PI (GCB derived) were lysed and treated with z-VRPR-FMK (SEQ ID No. 6) and analyzed as above. Results and SD from three independent experiments are shown. MALT1 activity is depicted as arbitrary units [AU].
Untreated DLBCL (1×10^7), primary T cells (0.25×10^7) or Jurkat T cells (0.2-1×10^7) (stimulated or not) were lysed in 300 μl co-IP buffer without protease inhibitors, centrifuged, incubated with probe 7 (concentration as depicted) for 1 h at RT, then transferred to streptavidin-coated plates (96 well, clear) and incubated o/n at 4° C. […] was determined after TMB substrate incubation in a photometer (Bio-Tek). […]

## z-VRPR-FMK (Z N-terminal cap, FMK warhead)
7 GCB DLBCL biopsies
  samples with reduction in MALT1 activity, GCB DLBCL: one out of seven
8 ABC DLBCL biopsies
  samples with reduction in MALT1 activity, ABC DLBCL: five out of eight
